Results from the supplement of paper PMC12042874.
± gives the uncertainty stated by the source.

assay: amyloid nucleation score (Sup35N fusion, yeast selection) (log enrichment); library NNK3; higher = more nucleation; inactive = no reads after selection
Method in brief: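 The nucleation score equals the log enrichment of output over input reads from DiMSum, centred on the mode score of non-aggregating sequences. It was computed only for sequences with 100 or more input reads. The reads came from Illumina sequencing of plasmid inserts from psi-negative yeast expressing Sup35N fused to peptides of 20 random codons, induced with 100 μM copper sulfate for 24 hours and grown 7 days at 30°C without adenine and uracil.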

Row | Substance | amyloid nucleation score
1 | SYNFVNQYVWKEDRNTKVAI | inactive
2 | RLFKNGSMGRSYGSVYRPV | -0.111 ± 0.81
3 | IHIGTPFRGSHTFASVRRK | inactive
4 | ECYFFHFTR | 1.34 ± 0.12
5 | WNMVYFLLQFSIDASLGT | inactive
6 | IDSLSAIGKSWTQGESRSDR | inactive
7 | DSKQNYLIRVDRLFMECGLK | inactive
8 | ITVFNLILM | 2.61 ± 0.058
9 | IRTSLSSVLDVCHTSNTI | inactive
10 | PGITNLWLEMSHV | inactive
11 | LCLHERCDALSFDDNPYSTR | inactive
12 | WPFHWSFSFVISMYMSWGNS | inactive
13 | FKLVGCGCNVMTFVSYLVNQ | 1.98 ± 0.083
14 | IEHSQYPAQAKPRLGSCLVL | inactive
15 | AVASSRYNLEYLSRSLCVMS | inactive
16 | NVWSVVFVSCLIIYGCPKWM | 1.31 ± 0.087
17 | ILCGESTR | inactive
18 | GSISLASWVVYSIAIR | inactive
19 | RSEPIKVVWVSISQPMDFFC | 2.13 ± 0.077
20 | CNNMYRERNNFWILMEWSLL | inactive
21 | LVVYSVGFWHR | -0.143 ± 0.48
22 | YTVSS | inactive

Row | Substance | amyloid nucleation score
23 | LGSLPGGETLHCLNRFQRLS | inactive
24 | VAGSLVAKP | inactive
25 | HHLTFTGGWYPDWHSLFMGG | inactive
26 | ISGKCRIVAVESSCECSLSS | inactive
27 | RSSPEDPLTSFLGYTGMTAS | inactive
28 | LVDLGFMRRCSQSRLQDFCF | 0.832 ± 0.24
29 | RVVCAD | inactive
30 | RTHGCCSVCNTEFADGVVLS | inactive
31 | TSLSTSKVLDASLRMDQLST | inactive
32 | YSKYSYSCVDGMIW | inactive
33 | DVANKIVSKGRS | inactive
34 | ISDLWLFATCSLK | inactive
35 | WSTPWMWVRFGRIDHCSLGV | inactive
36 | NPFMW | inactive
37 | VYFHSGSARFNTGTQL | inactive
38 | VSDIGCMGVDSLSPGYHNIV | inactive
39 | RVCRVAPLPAVKGLGVSQNS | inactive
40 | QRMTNFLLGRVSV | inactive
41 | FSFRTMYVFDPLYNKYRIFM | 0.125 ± 0.6
42 | IIGTLSRMLDIGIIFVTT | -0.154 ± 0.88
43 | LWYWVELLCCTGGSRA | 2.02 ± 0.086
44 | CPYLSSVLHDAQLKATFING | 1.11 ± 0.096

Row | Substance | amyloid nucleation score
45 | CNYNGLESILR | inactive
46 | WFSSKRDLR | inactive
47 | LDKAHHHLETAKLLLAWGVI | inactive
48 | TNFAYMQREGS | inactive
49 | NTYLVWIPRSFGQGKSNCLK | inactive
50 | LRKFFHLLQIIMERNINRSI | inactive
51 | LSGLFARRNQWWKYGLRRN | inactive
52 | NVDHRTKSWLINWFTSLELL | inactive
53 | VFRMCVYIDLVSLDSYYDVL | inactive
54 | QMDRRTPLM | inactive
55 | ALVAPKAGAFMSLKVQLGMP | 1.67 ± 0.073
56 | LYHPGALVHQQIDS | inactive
57 | RSVKVYLRCSLSNCVILLGT | 2.58 ± 0.049
58 | QRSSHGPLGCLSDLQLNTLR | -0.882 ± 1.4
59 | CYTMSNVRVPWKRGICYCGL | inactive
60 | LATRWRCCSCNAWS | -0.593 ± 1.1
61 | VSTHVLHPYTYT | inactive
62 | MAWGLVNMRMSLSAKYQGAL | inactive
63 | AFLFTLL | inactive
64 | CCTIIRAYVVRELAHINNSW | inactive
65 | YVVPRFTVMGEQKKCQWRSL | inactive
